Measured values reported in patent US20220162306A1.
Several values for one entry are separate records, joined by “and”; a condition that tells them apart may be missing. Equal entries are not always repeated.

Key:
[1] = molecular target: receptors on circulating human B cells (CD32B and CD79B, the two targets of PRV-3279)
[2] = molecular target: CD32B (Fc gamma receptor IIb) (human) (UniProt P31994); experiment: cell-based or functional assay
[3] = molecular target: receptors on circulating human B cells (CD32B and CD79B, the two targets of PRV-3279); experiment: receptor occupancy on circulating B cells of dosed healthy subjects (FIG. 3B)

Sequence of CD32B (Fc gamma receptor IIb) (human) (P31994 43-310): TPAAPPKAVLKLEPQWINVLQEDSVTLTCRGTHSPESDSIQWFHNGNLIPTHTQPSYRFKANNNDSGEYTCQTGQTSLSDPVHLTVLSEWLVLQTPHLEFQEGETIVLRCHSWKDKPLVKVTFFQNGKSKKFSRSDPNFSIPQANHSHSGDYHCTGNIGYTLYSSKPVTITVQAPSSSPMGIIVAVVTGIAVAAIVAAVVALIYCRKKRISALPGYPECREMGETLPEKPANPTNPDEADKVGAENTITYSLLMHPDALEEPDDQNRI

Substance: PRV-3279, a humanized CD32B×CD79B DART® protein (bispecific antibody)
- percent of available CD19+ B cells bound [1]: > 85%
- receptor occupancy [1]: > 50%
- inhibition of anti-human IgM stimulated B-cell proliferation (3H-thymidine incorporation), 100 nM PRV-3279, B cells of SLE patients with active or inactive disease [2]: 60%
- inhibition of anti-human IgM stimulated B-cell proliferation (3H-thymidine incorporation), 100 nM PRV-3279, B cells of normal healthy volunteers and SLE patients [2]: 60%
- percent of receptors occupied [3]: 70% and 75%
